Laboratory results taken from patent publication US20210388110A1 (published 2021).

Target: T1, soluble human GPC3 (human, UniProt P51654 25-563, limits assumed)
T1 construct: soluble human GPC3 as analyte; also called glypican 3
Assay: SPR (Biacore), soluble human GPC3

T1 sequence (P51654 other isoform, or with tags, fused parts or gaps limits assumed, form in doubt): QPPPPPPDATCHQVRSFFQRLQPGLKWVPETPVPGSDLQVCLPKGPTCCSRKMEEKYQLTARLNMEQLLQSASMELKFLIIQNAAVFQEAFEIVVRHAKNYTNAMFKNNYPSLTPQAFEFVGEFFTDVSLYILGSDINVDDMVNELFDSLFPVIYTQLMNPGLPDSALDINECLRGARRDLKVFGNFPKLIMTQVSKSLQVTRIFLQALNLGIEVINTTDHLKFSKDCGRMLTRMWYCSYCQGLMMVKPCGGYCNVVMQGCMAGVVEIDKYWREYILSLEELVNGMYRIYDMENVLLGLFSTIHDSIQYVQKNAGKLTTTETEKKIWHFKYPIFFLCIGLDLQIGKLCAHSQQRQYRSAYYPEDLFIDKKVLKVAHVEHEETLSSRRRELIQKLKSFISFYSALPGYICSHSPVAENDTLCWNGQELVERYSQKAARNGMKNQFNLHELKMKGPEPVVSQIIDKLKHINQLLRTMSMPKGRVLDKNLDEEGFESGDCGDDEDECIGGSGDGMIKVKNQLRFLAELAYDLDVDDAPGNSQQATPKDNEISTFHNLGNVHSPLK

B1: GCH054-G1dh/none-Hi-Kn010G3/L0212-k0 (antibody, human IgG1, kappa)
heavy: not shown
chain: EPKSSDKTHTCPPCPAPELLGGPSVFLFPPKPKDTLMISRTPEVTCVVVDVSHEDPEVKFNWYVDGVEVHNAKTKPREEQYNSTYRVVSVLTVLHQDWLNGKEYKCKVSNKALPAPIEKTISKAKGQPREPQVCTLPPSRDELTKNQVSLWCLVKGFYPSDIAVEWESNGQPENNYKTTPPVLDSDGSFFLYSKLTVDKSRWQQGNVFSCSVMHEALHNRYTQKSLSLSP
light: DIVMTQSPLSLPVTPGEPASISCRPSQSPVHSNRNTYLHWYQQKPGQAPRLLIYKVSNRFSGVPDRFSGSGSGTDFTLKISRVEAEDVGVYYCYQGTQVPYTFGQGTKLEIKRTVAAPSVFIFPPSDEQLKSGTASVVCLLNNFYPREAKVQWKVDNALQSGNSQESVTEQDSKDSTYSLSSTLTLSKADYEKHKVYACEVTHQGLSSPVTKSFNRGEC
notes: single-arm (one Fab)
- Kd: 517 pM

B2: GCH054-G1dh/none-Hi-Kn010G3/L0222-k0 (antibody, human IgG1, kappa)
heavy: not shown
chain: EPKSSDKTHTCPPCPAPELLGGPSVFLFPPKPKDTLMISRTPEVTCVVVDVSHEDPEVKFNWYVDGVEVHNAKTKPREEQYNSTYRVVSVLTVLHQDWLNGKEYKCKVSNKALPAPIEKTISKAKGQPREPQVCTLPPSRDELTKNQVSLWCLVKGFYPSDIAVEWESNGQPENNYKTTPPVLDSDGSFFLYSKLTVDKSRWQQGNVFSCSVMHEALHNRYTQKSLSLSP
light: DIVMTQSPLSLPVTPGEPASISCRSSQSPVHSNRNTYIQWYQQKPGQAPRLLIYKVSNRFSGVPDRFSGSGSGTDFTLKISRVEAEDVGVYYCYQGTQVPYTFGQGTKLEIKRTVAAPSVFIFPPSDEQLKSGTASVVCLLNNFYPREAKVQWKVDNALQSGNSQESVTEQDSKDSTYSLSSTLTLSKADYEKHKVYACEVTHQGLSSPVTKSFNRGEC
notes: single-arm (one Fab)
- Kd: 31.5 pM

B3: GCH054-G1dh/none-Hi-Kn010G3/L0246-k0 (antibody, human IgG1, kappa)
heavy: not shown
chain: EPKSSDKTHTCPPCPAPELLGGPSVFLFPPKPKDTLMISRTPEVTCVVVDVSHEDPEVKFNWYVDGVEVHNAKTKPREEQYNSTYRVVSVLTVLHQDWLNGKEYKCKVSNKALPAPIEKTISKAKGQPREPQVCTLPPSRDELTKNQVSLWCLVKGFYPSDIAVEWESNGQPENNYKTTPPVLDSDGSFFLYSKLTVDKSRWQQGNVFSCSVMHEALHNRYTQKSLSLSP
light: DIVMTQSPLSLPVTPGEPASISCRSSQSPVHSNRNTYIQWYQQKPGQAPRLLIYKVSNRFSGVPDRFSGSGSGTDFTLKISRVEAEDVGVYYCSQGTQVPYTFGQGTKLEIKRTVAAPSVFIFPPSDEQLKSGTASVVCLLNNFYPREAKVQWKVDNALQSGNSQESVTEQDSKDSTYSLSSTLTLSKADYEKHKVYACEVTHQGLSSPVTKSFNRGEC
notes: single-arm (one Fab)
- Kd: 31.5 pM

B4: GCH055-G1dh/none-Hi-Kn010G3/L0215-k0 (antibody, human IgG1, kappa)
heavy: not shown
chain: EPKSSDKTHTCPPCPAPELLGGPSVFLFPPKPKDTLMISRTPEVTCVVVDVSHEDPEVKFNWYVDGVEVHNAKTKPREEQYNSTYRVVSVLTVLHQDWLNGKEYKCKVSNKALPAPIEKTISKAKGQPREPQVCTLPPSRDELTKNQVSLWCLVKGFYPSDIAVEWESNGQPENNYKTTPPVLDSDGSFFLYSKLTVDKSRWQQGNVFSCSVMHEALHNRYTQKSLSLSP
light: DIVMTQSPLSLPVTPGEPASISCRSSQPPVHSNRNTYIHWYQQKPGQAPRLLIYKVSNRFSGVPDRFSGSGSGTDFTLKISRVEAEDVGVYYCGQGTQVPYTFGQGTKLEIKRTVAAPSVFIFPPSDEQLKSGTASVVCLLNNFYPREAKVQWKVDNALQSGNSQESVTEQDSKDSTYSLSSTLTLSKADYEKHKVYACEVTHQGLSSPVTKSFNRGEC
notes: single-arm (one Fab)
- Kd: 1520 pM

B5: GCH054-G1dh/none-Hi-Kn010G3/L0249-k0 (antibody, human IgG1, kappa)
heavy: not shown
chain: EPKSSDKTHTCPPCPAPELLGGPSVFLFPPKPKDTLMISRTPEVTCVVVDVSHEDPEVKFNWYVDGVEVHNAKTKPREEQYNSTYRVVSVLTVLHQDWLNGKEYKCKVSNKALPAPIEKTISKAKGQPREPQVCTLPPSRDELTKNQVSLWCLVKGFYPSDIAVEWESNGQPENNYKTTPPVLDSDGSFFLYSKLTVDKSRWQQGNVFSCSVMHEALHNRYTQKSLSLSP
light: DIVMTQSPLSLPVTPGEPASISCRPSQSPVHSNRNTYIQWYQQKPGQAPRLLIYKVSNRFSGVPDRFSGSGSGTDFTLKISRVEAEDVGVYYCSQGTQVPYTFGQGTKLEIKRTVAAPSVFIFPPSDEQLKSGTASVVCLLNNFYPREAKVQWKVDNALQSGNSQESVTEQDSKDSTYSLSSTLTLSKADYEKHKVYACEVTHQGLSSPVTKSFNRGEC
notes: single-arm (one Fab)
- Kd: 3.61 pM

B6: GCH054-G1dh/none-Hi-Kn010G3/TR01L015-k0 (antibody, human IgG1, kappa)
heavy: not shown
chain: EPKSSDKTHTCPPCPAPELLGGPSVFLFPPKPKDTLMISRTPEVTCVVVDVSHEDPEVKFNWYVDGVEVHNAKTKPREEQYNSTYRVVSVLTVLHQDWLNGKEYKCKVSNKALPAPIEKTISKAKGQPREPQVCTLPPSRDELTKNQVSLWCLVKGFYPSDIAVEWESNGQPENNYKTTPPVLDSDGSFFLYSKLTVDKSRWQQGNVFSCSVMHEALHNRYTQKSLSLSP
light: DIVMTQSPLSLPVTPGEPASISCRSSQSPVHSNRNTYLHWYLQKPGQSPQLLIYKVSNRFSGVPDRFSGSGSGTDFTLKISRVEAEDVGVYYCGQGTQVPYTFGQGTKLEIKRTVAAPSVFIFPPSDEQLKSGTASVVCLLNNFYPREAKVQWKVDNALQSGNSQESVTEQDSKDSTYSLSSTLTLSKADYEKHKVYACEVTHQGLSSPVTKSFNRGEC
notes: single-arm (one Fab)
- Kd: 2450 pM

B7: GCH054-G1dh/none-Hi-Kn010G3/L0262-k0 (antibody, human IgG1, kappa)
heavy: not shown
chain: EPKSSDKTHTCPPCPAPELLGGPSVFLFPPKPKDTLMISRTPEVTCVVVDVSHEDPEVKFNWYVDGVEVHNAKTKPREEQYNSTYRVVSVLTVLHQDWLNGKEYKCKVSNKALPAPIEKTISKAKGQPREPQVCTLPPSRDELTKNQVSLWCLVKGFYPSDIAVEWESNGQPENNYKTTPPVLDSDGSFFLYSKLTVDKSRWQQGNVFSCSVMHEALHNRYTQKSLSLSP
light: DIVMTQSPLSLPVTPGEPASISCRSSQPPVHSNRNTYLHWYQQKPGQAPRLLIYKVSNRFSGVPDRFSGSGSGTDFTLKISRVEAEDVGVYYCAQGTQVPYTFGQGTKLEIKRTVAAPSVFIFPPSDEQLKSGTASVVCLLNNFYPREAKVQWKVDNALQSGNSQESVTEQDSKDSTYSLSSTLTLSKADYEKHKVYACEVTHQGLSSPVTKSFNRGEC
notes: single-arm (one Fab)
- Kd: 0.525 pM

B8: GCH054-G1dh/none-Hi-Kn010G3/TR01L016-k0 (antibody, human IgG1, kappa)
heavy: not shown
chain: EPKSSDKTHTCPPCPAPELLGGPSVFLFPPKPKDTLMISRTPEVTCVVVDVSHEDPEVKFNWYVDGVEVHNAKTKPREEQYNSTYRVVSVLTVLHQDWLNGKEYKCKVSNKALPAPIEKTISKAKGQPREPQVCTLPPSRDELTKNQVSLWCLVKGFYPSDIAVEWESNGQPENNYKTTPPVLDSDGSFFLYSKLTVDKSRWQQGNVFSCSVMHEALHNRYTQKSLSLSP
light: DIVMTQSPLSLPVTPGEPASISCRSSQSPVHSNRNTYLHWYLQKPGQSPQLLIYKVSNRFSGVPDRFSGSGSGTDFTLKISRVEAEDVGVYYCYQGTQVPYTFGQGTKLEIKRTVAAPSVFIFPPSDEQLKSGTASVVCLLNNFYPREAKVQWKVDNALQSGNSQESVTEQDSKDSTYSLSSTLTLSKADYEKHKVYACEVTHQGLSSPVTKSFNRGEC
notes: single-arm (one Fab)
- Kd: 763 pM

B9: GCH054-G1dh/none-Hi-Kn010G3/TR01L018-k0 (antibody, human IgG1, kappa)
heavy: not shown
chain: EPKSSDKTHTCPPCPAPELLGGPSVFLFPPKPKDTLMISRTPEVTCVVVDVSHEDPEVKFNWYVDGVEVHNAKTKPREEQYNSTYRVVSVLTVLHQDWLNGKEYKCKVSNKALPAPIEKTISKAKGQPREPQVCTLPPSRDELTKNQVSLWCLVKGFYPSDIAVEWESNGQPENNYKTTPPVLDSDGSFFLYSKLTVDKSRWQQGNVFSCSVMHEALHNRYTQKSLSLSP
light: DIVMTQSPLSLPVTPGEPASISCQASESPVHSNRNTYLHWYLQKPGQSPQLLIYKVSNRFSGVPDRFSGSGSGTDFTLKISRVEAEDVGVYYCGQGTQVPYTFGQGTKLEIKRTVAAPSVFIFPPSDEQLKSGTASVVCLLNNFYPREAKVQWKVDNALQSGNSQESVTEQDSKDSTYSLSSTLTLSKADYEKHKVYACEVTHQGLSSPVTKSFNRGEC
notes: single-arm (one Fab)
- Kd: 2590 pM

B10: GCH055-G1dh/none-Hi-Kn010G3/L0200-k0 (antibody, human IgG1, kappa)
heavy: not shown
chain: EPKSSDKTHTCPPCPAPELLGGPSVFLFPPKPKDTLMISRTPEVTCVVVDVSHEDPEVKFNWYVDGVEVHNAKTKPREEQYNSTYRVVSVLTVLHQDWLNGKEYKCKVSNKALPAPIEKTISKAKGQPREPQVCTLPPSRDELTKNQVSLWCLVKGFYPSDIAVEWESNGQPENNYKTTPPVLDSDGSFFLYSKLTVDKSRWQQGNVFSCSVMHEALHNRYTQKSLSLSP
light: DIVMTQSPLSLPVTPGEPASISCRPSQSPVHSNRNTYLHWYQQKPGQAPRLLIYKVSNRFSGVPDRFSGSGSGTDFTLKISRVEAEDVGVYYCGQGTQVPYTFGQGTKLEIKRTVAAPSVFIFPPSDEQLKSGTASVVCLLNNFYPREAKVQWKVDNALQSGNSQESVTEQDSKDSTYSLSSTLTLSKADYEKHKVYACEVTHQGLSSPVTKSFNRGEC
notes: single-arm (one Fab)
- Kd: 1130 pM

B11: GCH055-G1dh/none-Hi-Kn010G3/L0212-k0 (antibody, human IgG1, kappa)
heavy: not shown
chain: EPKSSDKTHTCPPCPAPELLGGPSVFLFPPKPKDTLMISRTPEVTCVVVDVSHEDPEVKFNWYVDGVEVHNAKTKPREEQYNSTYRVVSVLTVLHQDWLNGKEYKCKVSNKALPAPIEKTISKAKGQPREPQVCTLPPSRDELTKNQVSLWCLVKGFYPSDIAVEWESNGQPENNYKTTPPVLDSDGSFFLYSKLTVDKSRWQQGNVFSCSVMHEALHNRYTQKSLSLSP
light: DIVMTQSPLSLPVTPGEPASISCRPSQSPVHSNRNTYLHWYQQKPGQAPRLLIYKVSNRFSGVPDRFSGSGSGTDFTLKISRVEAEDVGVYYCYQGTQVPYTFGQGTKLEIKRTVAAPSVFIFPPSDEQLKSGTASVVCLLNNFYPREAKVQWKVDNALQSGNSQESVTEQDSKDSTYSLSSTLTLSKADYEKHKVYACEVTHQGLSSPVTKSFNRGEC
notes: single-arm (one Fab)
- Kd: 614 pM

B12: GCH054-G1dh/none-Hi-Kn010G3/TR01L019-k0 (antibody, human IgG1, kappa)
heavy: not shown
chain: EPKSSDKTHTCPPCPAPELLGGPSVFLFPPKPKDTLMISRTPEVTCVVVDVSHEDPEVKFNWYVDGVEVHNAKTKPREEQYNSTYRVVSVLTVLHQDWLNGKEYKCKVSNKALPAPIEKTISKAKGQPREPQVCTLPPSRDELTKNQVSLWCLVKGFYPSDIAVEWESNGQPENNYKTTPPVLDSDGSFFLYSKLTVDKSRWQQGNVFSCSVMHEALHNRYTQKSLSLSP
light: DIVMTQSPLSLPVTPGEPASISCQASESPVHSNRNTYLHWYLQKPGQSPQLLIYKVSNRFSGVPDRFSGSGSGTDFTLKISRVEAEDVGVYYCYQGTQVPYTFGQGTKLEIKRTVAAPSVFIFPPSDEQLKSGTASVVCLLNNFYPREAKVQWKVDNALQSGNSQESVTEQDSKDSTYSLSSTLTLSKADYEKHKVYACEVTHQGLSSPVTKSFNRGEC
notes: single-arm (one Fab)
- Kd: 871 pM

B13: GCH054-G1dh/none-Hi-Kn010G3/L0215-k0 (antibody, human IgG1, kappa)
heavy: not shown
chain: EPKSSDKTHTCPPCPAPELLGGPSVFLFPPKPKDTLMISRTPEVTCVVVDVSHEDPEVKFNWYVDGVEVHNAKTKPREEQYNSTYRVVSVLTVLHQDWLNGKEYKCKVSNKALPAPIEKTISKAKGQPREPQVCTLPPSRDELTKNQVSLWCLVKGFYPSDIAVEWESNGQPENNYKTTPPVLDSDGSFFLYSKLTVDKSRWQQGNVFSCSVMHEALHNRYTQKSLSLSP
light: DIVMTQSPLSLPVTPGEPASISCRSSQPPVHSNRNTYIHWYQQKPGQAPRLLIYKVSNRFSGVPDRFSGSGSGTDFTLKISRVEAEDVGVYYCGQGTQVPYTFGQGTKLEIKRTVAAPSVFIFPPSDEQLKSGTASVVCLLNNFYPREAKVQWKVDNALQSGNSQESVTEQDSKDSTYSLSSTLTLSKADYEKHKVYACEVTHQGLSSPVTKSFNRGEC
notes: single-arm (one Fab)
- Kd: 1620 pM
